# Numbered stars: 1 amine (or outer) side, 2 acyl side, 3 side chain; on linkers, the order of the positions; unused ones are H or OH. Square brackets hold non-standard residues; d marks the D form. Suc = O=C(CCC(=O)[*:2])[*:1]; NMeV = CN[C@H](C(=O)O)C(C)C; βAla = NCCC(=O)O
# B1: Ant-2 (peptide)
# peptide: Suc-DF[NMeV][βAla]LM-NH2
# SMILES: CSCC[C@H](NC(=O)[C@H](CC(C)C)NC(=O)CCNC(=O)[C@H](C(C)C)N(C)C(=O)[C@H](Cc1ccccc1)NC(=O)[C@H](CC(=O)O)NC(=O)CCC(=O)O)C(N)=O
# B2: Ant-1 (peptide)
# peptide: Suc-DIF[NMeV][βAla]LM-NH2
# SMILES: CC[C@H](C)[C@H](NC(=O)[C@H](CC(=O)O)NC(=O)CCC(=O)O)C(=O)N[C@@H](Cc1ccccc1)C(=O)N(C)[C@H](C(=O)NCCC(=O)N[C@@H](CC(C)C)C(=O)N[C@@H](CCSC)C(N)=O)C(C)C
# B3: Ant-4 (peptide)
# peptide: Suc-DI[dW][NMeV][βAla]LM-NH2
# SMILES: CC[C@H](C)[C@H](NC(=O)[C@H](CC(=O)O)NC(=O)CCC(=O)O)C(=O)N[C@H](Cc1c[nH]c2ccccc12)C(=O)N(C)[C@H](C(=O)NCCC(=O)N[C@@H](CC(C)C)C(=O)N[C@@H](CCSC)C(N)=O)C(C)C
# B4: Ant-6 (peptide)
# peptide: Suc-DS[dW][NMeV][βAla]LM-NH2
# SMILES: CSCC[C@H](NC(=O)[C@H](CC(C)C)NC(=O)CCNC(=O)[C@H](C(C)C)N(C)C(=O)[C@@H](Cc1c[nH]c2ccccc12)NC(=O)[C@H](CO)NC(=O)[C@H](CC(=O)O)NC(=O)CCC(=O)O)C(N)=O
# B5: Ant-3 (peptide)
# peptide: Suc-DSF[NMeV][βAla]LM-NH2
# SMILES: CSCC[C@H](NC(=O)[C@H](CC(C)C)NC(=O)CCNC(=O)[C@H](C(C)C)N(C)C(=O)[C@H](Cc1ccccc1)NC(=O)[C@H](CO)NC(=O)[C@H](CC(=O)O)NC(=O)CCC(=O)O)C(N)=O
# B6: Ant-5 (peptide)
# peptide: Suc-D[dW][NMeV][βAla]LM-NH2
# SMILES: CSCC[C@H](NC(=O)[C@H](CC(C)C)NC(=O)CCNC(=O)[C@H](C(C)C)N(C)C(=O)[C@@H](Cc1c[nH]c2ccccc12)NC(=O)[C@H](CC(=O)O)NC(=O)CCC(=O)O)C(N)=O
# Target: Tilapia tac3 receptor (tilapia)
# Assay: cell-based or functional assay
row,Binder,reduction of the NKB-induced luciferase response (CRE-Luc) [%]
1,B1,~60
2,B2,~60
3,B3,~60
4,B4,~60
5,B5,~60
6,B6,~60

# Target: Zebrafish tac3 receptor (zebrafish)
# Assay: cell-based or functional assay
row,Binder,reduction of the NKB-induced response (CRE-Luc) [%]
1,B1,~60
2,B2,~60
3,B3,~60
4,B4,~60
5,B5,~60
6,B6,~60

# Target: Salmon tac3 receptor (salmon)
# Assay: cell-based or functional assay
Binder,IC50 of inhibition of slNKB-induced SRE-Luciferase activity [nM],reduction of the NKB-induced luciferase response (CRE-Luc) [%]
B1,2600,–
B3,–,~60
B4,870,~60
B5,6.16,–
